# Measured values as given in IntAct's records for PubMed 22705394.
# B1: Ras-related protein Rab-21 (Homo sapiens), Q9UL25 (parent)
# chain: MAAAGGGGGGAAAAGRAYSFKVVLLGEGCVGKTSLVLRYCENKFNDKHITTLQASFLTKKLNIGGKRVNLAIWDTAGQERFHALGPIYYRDSNGAILVYDITDEDSFQKVKNWVKELRKMLGNEICLCIVGNKIDLEKERHVSIQEAESYAESVGAKHYHTSAKQNKGIEELFLDLCKRMIETAQVDERAKGNGSSQPGTARRGVQIIDDEPQAQTSGGGCCSSG
# Variants of: B1
# Conditions: with macf1_human MACF1, Q9UPN3
row,Variant,effect of a mutation on the interaction
1,MAAAGGGGGGAAAAGRAYSFKVVLLGEGCVGKNSLVLRYCENKFNDKHITTLQASFLTKKLNIGGKRVNLAIWDTAGQERFHALGPIYYRDSNGAILVYDITDEDSFQKVKNWVKELRKMLGNEICLCIVGNKIDLEKERHVSIQEAESYAESVGAKHYHTSAKQNKGIEELFLDLCKRMIETAQVDERAKGNGSSQPGTARRGVQIIDDEPQAQTSGGGCCSSG [T33N],decreasing interaction

# Variants of: B1
# Conditions: with MACF1, Q9UPN3-1
row,Variant,effect of a mutation on the interaction
1,MAAAGGGGGGAAAAGRAYSFKVVLLGEGCVGKNSLVLRYCENKFNDKHITTLQASFLTKKLNIGGKRVNLAIWDTAGQERFHALGPIYYRDSNGAILVYDITDEDSFQKVKNWVKELRKMLGNEICLCIVGNKIDLEKERHVSIQEAESYAESVGAKHYHTSAKQNKGIEELFLDLCKRMIETAQVDERAKGNGSSQPGTARRGVQIIDDEPQAQTSGGGCCSSG [T33N],decreasing interaction
